Results taken from article PMC11852163, “Development and Characterization of CD44-Targeted X-Aptamers with Enhanced Binding Affinity for Cancer Therapeutics”.

Key:
CD44-HABD [1] = molecular target: CD44-HABD (UniProt P16070); test: filter binding; settings: monothioate backbone, Filter binding: 1 nM biotinylated XA, 20 mM Tris pH 8.0, 150 mM NaCl, 40 min, room temperature, cell binding at room temperature, 30-60 min
CD44-HABD [2] = molecular target: CD44-HABD (UniProt P16070 20-178); test: filter binding; Filter binding: 1 nM biotinylated XA, 20 mM Tris pH 8.0, 150 mM NaCl, 40 min, room temperature; cell binding at room temperature, 30-60 min; settings: protein: recombinant; label: biotin
Chain of CD44-HABD (UniProt P16070 20-178) (P16070 20-178): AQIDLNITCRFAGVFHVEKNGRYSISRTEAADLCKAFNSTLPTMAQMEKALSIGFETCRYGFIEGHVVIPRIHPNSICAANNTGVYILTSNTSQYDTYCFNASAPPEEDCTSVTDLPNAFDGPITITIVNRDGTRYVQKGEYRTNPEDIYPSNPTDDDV

Chain of CD44-HABD (UniProt P16070) (P16070 20-178): as above

**Q.** With “TGCAGATACAGTAAACGTCCATAGACACAG [XA5-ADDA]” as the molecule, how does the Kd (CD44-HABD [1]; X = T7, T18 as ADDA-conjugated amino-dU) read?
**A.** 125 nM

**Q.** Which Kd (CD44-HABD [1]; X = T7, T18 as amino-dU) does the source give for “TGCAGATACAGTAAACGTCCATAGACACAG [XA5-NH2]” here?
**A.** 137 nM

**Q.** “TTAAGATCTGCAATGTAACCATAGACACAG [XA9-ADDA]” was tested. Which Kd (CD44-HABD [1]; X = T14 as ADDA-conjugated amino-dU) did it give?
**A.** 77.6 nM

**Q.** For “TTAAGATCTGCAATGTAACCATAGACACAG [XA9-NH2]”, which Kd (CD44-HABD [1]; X = T14 as amino-dU) is on record?
**A.** 111 nM

**Q.** “TTAAGATCTGTTAGGGAACCAAGACGACAG [XA1-ADDA]” was tested. Which Kd (CD44-HABD [1]; X = T9, T11 as ADDA-conjugated amino-dU) did it give?
**A.** 78.3 nM

**Q.** With “TTAAGATCTGTTAGGGAACCAAGACGACAG [XA1-NH2]” as the molecule, how does the Kd (CD44-HABD [1]; X = T9, T11 as 5-(aminoethyl-3-acrylimido)-dU) read?
**A.** 55.5 nM

**Q.** With “TTGGGGCCTGCAAGACGTCCATAGACACAG [XA4-ADDA]” as the molecule, how does the Kd (CD44-HABD [1]; X = T18 as ADDA-conjugated amino-dU) read?
**A.** 103 nM

**Q.** Which Kd (CD44-HABD [1]; X = T18 as amino-dU) does the source give for “TTGGGGCCTGCAAGACGTCCATAGACACAG [XA4-NH2]” here?
**A.** 137 nM

B1: XA2-NH2 (XNA)
DNA: TGCAGATCTGCAAGGGAACCAAGGACACTAC
modifications: NH2 form; no X in the printed sequence, X position unknown; monothioate backbone
**Q.** How did the Kd (CD44-HABD [2]) turn out when B1 was run?
**A.** 62.9 ± 10.3 nM

B2: XA2-ADDA (XNA)
DNA: TGCAGATCTGCAAGGGAACCAAGGACACTAC
modifications: ADDA form; no X in the printed sequence, X position unknown; monothioate backbone
**Q.** How did the Kd (CD44-HABD [2]) turn out when B2 was run?
**A.** 109 ± 15.4 nM
